The results in this text go back to publication PMC4018787 (The Journal of Cell Biology, 2014).

The target in assay [1] is T1, recombinant fibrinogen-like (FBG) domain of tenascin-X (TNX), produced in mammalian cells (UniProt O18977 3911-4135).
T1 sequence (looked up): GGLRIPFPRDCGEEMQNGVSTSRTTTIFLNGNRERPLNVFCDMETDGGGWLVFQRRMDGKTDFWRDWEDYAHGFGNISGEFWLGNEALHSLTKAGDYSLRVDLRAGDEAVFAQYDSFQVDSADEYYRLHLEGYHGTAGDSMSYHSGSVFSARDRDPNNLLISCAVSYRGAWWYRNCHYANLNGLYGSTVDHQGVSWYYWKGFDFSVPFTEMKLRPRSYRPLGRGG
The experiment in a line: ELISA. For orientation: In an ELISA, binding on a coated surface is turned into a signal by an enzyme label.

Assay [2] deals with recombinant full-length tenascin-X (TNX) (UniProt O18977 23-4135). The experiment in a line: ELISA.

B1: inserted (I) domain of the α11 integrin chain fused to GST (domain or fragment, human, UniProt Q9UKX5-1 160-358, looked up)
chain: QTYMDIVIVLDGSNSIYPWVEVQHFLINILKKFYIGPGQIQVGVVQYGEDVVHEFHLNDYRSVKDVVEAASHIEQRGGTETRTAFGIEFARSEAFQKGGRKGAKKVMIVITDGESHDSPDLEKVIQQSERDNVTRYAVAVLGYYNRRGINPETFLNEIKYIASDPDDKHFFNVTDEAALKDIVDALGDRIFSLEGTNKN
Consider B1, for which the binding result in assay [1] and in assay [2] was “binds” throughout.
